According to publication PMC7312009, “SIRT7 Deacetylates STRAP to Regulate p53 Activity and Stability” (International Journal of Molecular Sciences, 2020):

Molecular target: T1, Flag-tagged SIRT7 (UniProt Q9NRC8 1-400)
T1 construct: also called SIRT7 protein purified from 293T cells; source: purified from 293T cells; HEK293T, transfected, in lysate
T1 sequence (looked up): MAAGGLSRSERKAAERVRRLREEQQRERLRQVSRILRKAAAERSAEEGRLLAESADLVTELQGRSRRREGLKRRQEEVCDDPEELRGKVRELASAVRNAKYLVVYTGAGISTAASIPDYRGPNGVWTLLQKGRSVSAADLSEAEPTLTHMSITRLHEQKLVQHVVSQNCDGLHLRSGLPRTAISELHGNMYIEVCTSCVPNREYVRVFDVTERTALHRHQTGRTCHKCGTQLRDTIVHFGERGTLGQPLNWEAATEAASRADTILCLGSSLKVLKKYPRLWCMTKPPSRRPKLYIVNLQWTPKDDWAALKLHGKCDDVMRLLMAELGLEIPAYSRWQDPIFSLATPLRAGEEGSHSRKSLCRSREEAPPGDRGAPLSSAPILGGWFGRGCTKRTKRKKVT
Assay: pull-down; 1 μg GST-STRAP fusion protein incubated with Flag-tagged SIRT7 purified from 293T cells in 100 μL BC100 at 4 °C overnight, then glutathione-sepharose beads 2 h; Western blotting
Conditions: both partners purified

binding result: binds
B1: GST-STRAP full length (natural protein, UniProt Q9Y3F4 1-350, looked up)
chain: MAMRQTPLTCSGHTRPVVDLAFSGITPYGYFLISACKDGKPMLRQGDTGDWIGTFLGHKGAVWGATLNKDATKAATAAADFTAKVWDAVSGDELMTLAHKHIVKTVDFTQDSNYLLTGGQDKLLRIYDLNKPEAEPKEISGHTSGIKKALWCSEDKQILSADDKTVRLWDHATMTEVKSLNFNMSVSSMEYIPEGEILVITYGRSIAFHSAVSLDPIKSFEAPATINSASLHPEKEFLVAGGEDFKLYKYDYNSGEELESYKGHFGPIHCVRFSPDGELYASGSEDGTLRLWQTVVGKTYGLWKCVLPEEDSGELAKPKIGFPETTEEELEEIASENSDCIFPSAPDVKA
notes: Serine-threonine kinase receptor-associated protein (STRAP), full length, subcloned into pGEX4T-3; also called GST-STRAP (FL); full-length STRAP (WT); source: purified GST fusion protein (pGEX4T-3)
